Sequences and labels used below:
B1: Azoarcus group I ribozyme (parent)
chain: GUGCCUUGCGCCGGGAAACCACGCAAGGGAUGGUGUCAAAUUCGGCGAAACCUAAGCGCCCGCCCGGGCGUAUGGCAACGCCGAGCCAAGCUUCGGCGCCUGCGCCGAUGAAGGUGUAGAGACUAGACGGCACCCACCUAAGGCAAACGCUAUGGUGAAGGCAUAGUCCAGGGAGUGGCGAAAGUCACACAAACCGG

The variants in this data set derive from B1. The data set is described as follows: reverse-splicing fitness (ratio to wild type); higher = more active; in vitro selection; Mg2+ level not given. Summed up: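 An in vitro group I ribozyme library with randomized positions was T7-transcribed and gel-purified. In triplicate, 10 pmol RNA in EPPS pH 7.5 was reacted with 50 pmoles of a 30-nt RNA substrate for 1 h at 37 °C across several added MgCl2 levels (1–48 mM), then stopped with EDTA. Products were reverse transcribed from a substrate-complementary primer, PCR-amplified and sequenced (HiSeq 4000). Fitness is a variant's read proportion after selection over that before, normalised to wild type.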
GUGCCUUGCGCCGGGAAACCACGCAAGGGAUGGUGUCAAAUUCGGCGAAACCUAAGCGCCCGCCCGGGCGUAUGGCAACGCGGAGCCAAGCUUCGGCGCCUGCGCCGAUGGAGGUGUAGGGACUAGACGGCACCCACCUAAGGCCAACGUUAUGGUGAAGGCAUAGUCCAGGGAGCGGCGAAAGUCACACAAACCGG: the reverse-splicing fitness was determined as 0.0149. Then GUGCCUUGCGCCGGGAAACCACGCAAGGGAUGGUGUCAAAUUCGGCGAAACCUAAGCGCCCGCCCGGGCGUAUGGCAACGCAGAGCCAAGCUUCGGCGCCUGCGCCGAUGGAGGUGUAGGGACUAGACGGCACCCACCUAAGGCUAACGCUAUGGUGAAGGCAUAGUCUAGGGAGUGGCGAAAGUCACACAAACCGG, with 0.00927; and GUGCCUUGCGCCGGGAAACCACGCAAGGGAUGGUGUCAAAUUCGGCGAAACCUAAGCGCCCGCCCGGGCGUAUGGCAACGCAGAGCCAAGCUUCGGCGCCUGCGCCGAUGAAGGUGUAGAGACUAGACGGCACCCACCUAAGGCUAACGCUAUGGUGAAGGCAUAGUCGAGGGAGAGGCGAAAGUCACACAAACCGG, with 0.0105; and GUGCCUUGCGCCGGGAAACCACGCAAGGGAUGGUGUCAAAUUCGGCGAAACCUAAGCGCCCGCCCGGGCGUAUGGCAACGCGGAGCCAAGCUUCGGCGCCUGCGCCGAUGGAGGUGUAGUGACUAGACGGCACCCACCUAAGGCAAACGCUAUGGUGAAGGCAUAGUCAAGGGAGGGGCGAAAGUCACACAAACCGG, with 0.00169.

As to GUGCCUUGCGCCGGGAAACCACGCAAGGGAUGGUGUCAAAUUCGGCGAAACCUAAGCGCCCGCCCGGGCGUAUGGCAACGCUGAGCCAAGCUUCGGCGCCUGCGCCGAUGCAGGUGUAGGGACUAGACGGCACCCACCUAAGGCUAACGCUAUGGUGAAGGCAUAGUCGAGGGAGAGGCGAAAGUCACACAAACCGG, the reverse-splicing fitness stood at 0.00938. Then GUGCCUUGCGCCGGGAAACCACGCAAGGGAUGGUGUCAAAUUCGGCGAAACCUAAGCGCCCGCCCGGGCGUAUGGCAACGCAGAGCCAAGCUUCGGCGCCUGCGCCGAUGUAGGUGUAGGGACUAGACGGCACCCACCUAAGGCAAACGGUAUGGUGAAGGCAUAGUCAAGGGAGAGGCGAAAGUCACACAAACCGG, with 0.0106; and GUGCCUUGCGCCGGGAAACCACGCAAGGGAUGGUGUCAAAUUCGGCGAAACCUAAGCGCCCGCCCGGGCGUAUGGCAACGCAGAGCCAAGCUUCGGCGCCUGCGCCGAUGGAGGUGUAGUGACUAGACGGCACCCACCUAAGGCCAACGCUAUGGUGAAGGCAUAGUCCAGGGAGGGGCGAAAGUCACACAAACCGG, with 0.00284; and GUGCCUUGCGCCGGGAAACCACGCAAGGGAUGGUGUCAAAUUCGGCGAAACCUAAGCGCCCGCCCGGGCGUAUGGCAACGCCGAGCCAAGCUUCGGCGCCUGCGCCGAUGGAGGUGUAGGGACUAGACGGCACCCACCUAAGGCAAACGCUAUGGUGAAGGCAUAGUCGAGGGAGAGGCGAAAGUCACACAAACCGG, with 0.09. Turning to GUGCCUUGCGCCGGGAAACCACGCAAGGGAUGGUGUCAAAUUCGGCGAAACCUAAGCGCCCGCCCGGGCGUAUGGCAACGCCGAGCCAAGCUUCGGCGCCUGCGCCGAUGGAGGUGUAGUGACUAGACGGCACCCACCUAAGGCUAACGAUAUGGUGAAGGCAUAGUCAAGGGAGGGGCGAAAGUCACACAAACCGG, the reverse-splicing fitness came out at 0.00207. Then GUGCCUUGCGCCGGGAAACCACGCAAGGGAUGGUGUCAAAUUCGGCGAAACCUAAGCGCCCGCCCGGGCGUAUGGCAACGCCGAGCCAAGCUUCGGCGCCUGCGCCGAUGUAGGUGUAGCGACUAGACGGCACCCACCUAAGGCGAACGGUAUGGUGAAGGCAUAGUCAAGGGAGUGGCGAAAGUCACACAAACCGG, with 0.0087; and GUGCCUUGCGCCGGGAAACCACGCAAGGGAUGGUGUCAAAUUCGGCGAAACCUAAGCGCCCGCCCGGGCGUAUGGCAACGCGGAGCCAAGCUUCGGCGCCUGCGCCGAUGGAGGUGUAGUGACUAGACGGCACCCACCUAAGGCAAACGCUAUGGUGAAGGCAUAGUCUAGGGAGCGGCGAAAGUCACACAAACCGG, with 0.0055. Then GUGCCUUGCGCCGGGAAACCACGCAAGGGAUGGUGUCAAAUUCGGCGAAACCUAAGCGCCCGCCCGGGCGUAUGGCAACGCGGAGCCAAGCUUCGGCGCCUGCGCCGAUGCAGGUGUAGAGACUAGACGGCACCCACCUAAGGCCAACGAUAUGGUGAAGGCAUAGUCGAGGGAGCGGCGAAAGUCACACAAACCGG, with 0.0224; and GUGCCUUGCGCCGGGAAACCACGCAAGGGAUGGUGUCAAAUUCGGCGAAACCUAAGCGCCCGCCCGGGCGUAUGGCAACGCAGAGCCAAGCUUCGGCGCCUGCGCCGAUGUAGGUGUAGUGACUAGACGGCACCCACCUAAGGCGAACGCUAUGGUGAAGGCAUAGUCAAGGGAGCGGCGAAAGUCACACAAACCGG, with 0.00356. As for GUGCCUUGCGCCGGGAAACCACGCAAGGGAUGGUGUCAAAUUCGGCGAAACCUAAGCGCCCGCCCGGGCGUAUGGCAACGCGGAGCCAAGCUUCGGCGCCUGCGCCGAUGAAGGUGUAGCGACUAGACGGCACCCACCUAAGGCCAACGCUAUGGUGAAGGCAUAGUCGAGGGAGGGGCGAAAGUCACACAAACCGG, the reverse-splicing fitness was 0.00428. Then GUGCCUUGCGCCGGGAAACCACGCAAGGGAUGGUGUCAAAUUCGGCGAAACCUAAGCGCCCGCCCGGGCGUAUGGCAACGCGGAGCCAAGCUUCGGCGCCUGCGCCGAUGAAGGUGUAGCGACUAGACGGCACCCACCUAAGGCUAACGCUAUGGUGAAGGCAUAGUCGAGGGAGUGGCGAAAGUCACACAAACCGG, with 0.0068.
